Substitutions are numbered along the chain they refer to. One block for each binder: values may come before it.
How the values were obtained:
[1] = target: T1, human TL1A, soluble, CHO-expressed, residues 72-251 of SEQ ID NO:244 with N-terminal His6-tag (human, UniProt O95150 72-251); assay: ELISA, blocks hTL1A (150 pM) binding hDR3-Fc
T1 construct: also called hTL1A; hTL1A (CHO)
T1 sequence: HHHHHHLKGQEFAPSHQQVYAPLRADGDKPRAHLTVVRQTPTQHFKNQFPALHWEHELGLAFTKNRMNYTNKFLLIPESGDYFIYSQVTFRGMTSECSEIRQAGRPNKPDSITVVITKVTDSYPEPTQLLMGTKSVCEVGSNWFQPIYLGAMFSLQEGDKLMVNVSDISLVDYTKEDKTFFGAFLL
Summary of the method: (§1)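 Competition sandwich ELISA: biotinylated CHO-expressed ligand (human TL1A, FHM Q167R variant, or cynomolgus TL1A) at fixed concentration preincubated with titrated antibody 1 h at 25 °C, then 1 h on hDR3-Fc or hDcR3-Fc coated wells. Bound ligand detected by streptavidin-HRP/TMB at 450 nm; sigmoidal dose-response fit.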

[2] = target: T2, rat TL1A, soluble, CHO-expressed, residues 76-252 of SEQ ID NO:258 with N-terminal His6-tag (rat, UniProt Q8K3Y7 76-252); assay: SPR 25C, mAb captured
T2 construct: also called rTL1A; rTL1A (CHO)
T2 sequence: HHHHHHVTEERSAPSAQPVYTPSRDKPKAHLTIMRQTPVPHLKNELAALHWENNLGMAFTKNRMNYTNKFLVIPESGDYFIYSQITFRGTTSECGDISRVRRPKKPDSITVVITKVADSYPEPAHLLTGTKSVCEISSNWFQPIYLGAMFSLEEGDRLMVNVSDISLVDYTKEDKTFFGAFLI
Summary of the method: (§2)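 Biacore T100 SPR with captured mAb and soluble TL1A/Fhm analyte; ka and kd fitted to a 1:1 model assuming monomeric TL1A. KD = kd/ka; t1/2 (min) = ln2/(60·kd).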

[3] = target: T3, cynomolgus monkey TL1A, soluble, CHO-expressed, residues 72-251 of SEQ ID NO:248 with N-terminal His6-tag (cynomolgus monkey (Macaca fascicularis), UniProt O95150 72-251 (human entry)); assay: SPR 25C, mAb captured
T3 construct: also called MfTL1A; MfTL1A (CHO)
T3 chain: T1 sequence with F45L, I84V
Summary of the method: as §2

[4] = target: T1, human TL1A, soluble, CHO-expressed, …; assay: SPR 25C, mAb captured
Summary of the method: as §2

[5] = target: T4, human TL1A, soluble, E. coli-expressed, residues 72-251 of SEQ ID NO:244 (human, UniProt O95150 72-251); assay: cell-based or functional assay
T4 sequence: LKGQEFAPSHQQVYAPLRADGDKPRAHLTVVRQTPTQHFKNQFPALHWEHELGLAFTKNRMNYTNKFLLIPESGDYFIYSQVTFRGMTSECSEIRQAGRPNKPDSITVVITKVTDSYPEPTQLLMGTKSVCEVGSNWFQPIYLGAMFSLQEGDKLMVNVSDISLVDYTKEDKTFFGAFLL

[6] = target: T1, human TL1A, soluble, CHO-expressed, …; assay: cell-based or functional assay
[7] = target: T3, cynomolgus monkey TL1A, soluble, …; assay: ELISA, blocks MfTL1A (500 pM) binding hDR3-Fc
Summary of the method: as §1

[8] = target: T1, human TL1A, soluble, CHO-expressed, …; assay: cell-based or functional assay; remark: listed apart in the source
[9] = target: T3, cynomolgus monkey TL1A, soluble, …; assay: ELISA, blocks MfTL1A (50 pM) binding hDcR3-Fc
Summary of the method: as §1

[10] = target: T1, human TL1A, soluble, CHO-expressed, …; assay: ELISA, blocks hTL1A (10 pM) binding hDcR3-Fc
Summary of the method: as §1

- IC50 [1]: 0.064 nM
- Kd [2]: 0.078 nM
- t1/2 [2]: 2.4 h
- Kd [3]: 0.115 nM
- t1/2 [3]: 9.62 h
- Kd [4]: 0.0604 nM
- t1/2 [4]: 12.6 h
- IC50, NFkB-luciferase reporter [5]: 0.19 nM
- IC50, NFkB-luciferase reporter [6]: 0.31 nM
- IC50 [7]: 0.24 nM
- Average % Blocking IFN-g, 3 ug/ml mAb [8]: 83%
- IC50 [9]: 0.127 nM
- IC50 [10]: 0.181 nM
B1: H4H1742P (antibody, human IgG4 S228P, V domains shown)
VH: EVQLVESGGGLVQPGGSLRLSCAASGFTFSNYVMNWVRQAPGKGLEWVSVISGSGGSTHYADSVKGRFTISRDNSKDALYLQMNSLRAEDTAVYYCAKGPLEAYYYYNGMDVWGQGTTVTVSS
VL: DIQLTQSPSFLSASVGDRVTITCWASQAISSYLAWYQHKPGRAPKLLIYSTSTLQSGVPSRFSGSGSGTEFTLTISSLQPEDFATYYCQQLNSYPTFGQGTKLEIK

- IC50 [1]: 0.015 nM
- Kd [2]: 0.317 nM
- t1/2 [2]: 0.433 h
- Kd [3]: 0.346 nM
- t1/2 [3]: 1.07 h
- Kd [4]: 0.0636 nM
- t1/2 [4]: 3.08 h
- IC50, NFkB-luciferase reporter [5]: 0.02 nM
- IC50, NFkB-luciferase reporter [6]: 0.05 nM
- IC50 [7]: 0.016 nM
- Average % Blocking IFN-g, 3 ug/ml mAb [8]: 94%
- IC50 [9]: 0.145 nM
- IC50 [10]: 0.068 nM
B2: H4H1725P (antibody, human IgG4 S228P, V domains shown)
VH: QVQLVQSGAEVKKPGASVKVSCKASGYTFTGYYMHWVRQAPGQGLEWMGWIKPKSGGTNYVQKFQGRVTMTRDTSINTAYMELNNLKSDDTAVYYCATGGSQDASDFWGQGTMVTVSS
VL: DIQMTQSPSSVSASVGGRVTITCRASQDISIWLAWYQQKPGKAPNLLIYAASSLQSGVPSRFSGSGSGTDFTLTISSLQPEDFATYYCQQADSFPLTFGGGTKVEIK

- IC50 [1]: 0.018 nM
- Kd [2]: 2.7 nM
- t1/2 [2]: 0.0667 h
- Kd [3]: 0.115 nM
- t1/2 [3]: 3.85 h
- Kd [4]: 0.164 nM
- t1/2 [4]: 2.87 h
- IC50, NFkB-luciferase reporter [5]: 0.06 nM
- IC50, NFkB-luciferase reporter [6]: 0.09 nM
- IC50 [7]: 0.05 nM
- Average % Blocking IFN-g, 3 ug/ml mAb [8]: 91%
- IC50 [9]: 0.118 nM
- IC50 [10]: 0.058 nM
B3: H4H1745P (antibody, human IgG4 S228P, V domains shown)
VH: EVQLVESGGGLVQPGGSLRLSCAASGFTFSSYAMTWVRQAPGKGLEWVSGVSGRGGSTYYADSVKGRFTISRDNSKNTLYLQMNSLRAEDTAVYYCAYWDISSFDYWGQGTLVTVSS
VL: DIQLTQSPSFLSASVGDRVTITCWASQGISTYLAWYQQKPGKTPKLLIYAASTLQSGVPSRFSGSGSGTDFTLTISSLQPEDFATYYCQQFNSYPLTFGGGTKVEIK

- IC50 [1]: 0.069 nM
- binding result [2]: no binding (tested: up to 100 nM)
- Kd [3]: 0.361 nM
- t1/2 [3]: 1.55 h
- Kd [4]: 0.608 nM
- t1/2 [4]: 1.07 h
- IC50, NFkB-luciferase reporter [5]: 0.16 nM
- IC50, NFkB-luciferase reporter [6]: 0.39 nM
- IC50 [7]: 0.117 nM
- Average % Blocking IFN-g, 3 ug/ml mAb [8]: 81%
- IC50 [9]: 0.068 nM
- IC50 [10]: 0.122 nM
B4: H4H1738P (antibody, human IgG4 S228P, V domains shown)
VH: EVQLVESGGALVKPGGSLRLSCAVSGFTFINDWMNWVRQAPGKGLEWVGRIKSTTDGGTTDDAAPVKGRFTISRDDSKNTLYLQMNSLKTEDTAVYYCTRDRNRQRNYFYDGMDVWGQGTTVTVSA
VL: DIVMTQSPVSLPVTPGEPASISCRSSQRLLHNNGNNYLDWYLQKPGQSPQLLIYLGSNRASGVPDRFSGSGSGTDFTLKVSRVEAEDVGVYYCMQALQTPYTFGQGTKLEIK
